B1: HESX1 (parent)
chain: SKYENYFSASERLSLKRELSWYRG
B2: TRIM63 (parent)
chain: QEKKLSFIEALIQQYQEQLDKSTK

Variants of: B1
Assay: protein stability index of a GFP-peptide fusion (GPS, HEK-293T) (PSI 1-6); higher = more stable
Details: c terminus: a fixed tail appended
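Also: lentivirally expressed fusions sorted by FACS into six bins by GFP to DsRed ratio, PSI derived from sequencing read proportions per bin multiplied by bin number.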

Protein stability index: each site, then its substitutions
N5: F 1.03; I 2.23; T 2.24; D 1.71; A 2.03; Q 2.12; P 1.63
L15: T 1.17; S 2.41; H 2.07; Q 2.95; K 2.47; E 2.22; A 2.72; Y 2.13; C 1.94; M 1.72; N 2.33; W 2.95; D 2.65
W21: K 1.75; F 2.29; V 2.2; C 2.2; T 2.46; Y 2.4; P 2.39; M 2.31; N 2.27; A 4.19; I 3.04; S 2.65
Y6: S 2.16; R 1.84; L 2.85; E 2.3; M 2.15; N 2.79; T 2.63; C 1.84; D 2.91; A 2.85
Y22: C 2.27; R 1.9; D 3.06; Q 1.7; T 1.9; P 2.29
K16: T 1.95; A 2.32; S 1.9; V 2.16; R 1.42; Y 1.94; H 1.78; L 2.21
A9: Q 2.01; F 1.51; S 1.82; Y 2.08; T 2.18; C 2.45; P 1.4; N 2.86; W 1.52; M 2.15; D 2.73; E 3.38; L 1.58; I 1.44; K 2.01; H 1.59; R 1.99
S14: H 1.99; C 2.07; P 2.96; F 1.73; E 2.14; M 1.74; D 3.59; W 2.21; G 1.33; N 2.25; Y 1.92; R 2.03; L 1.02; I 1.27
R12: F 1.55; G 1.77; E 2.77; K 1.93; N 1.79; L 2.03; Q 1.95; Y 2.01; M 1.06; H 2.65
R17: T 1.9; M 2.72; N 1.76; S 1.56; L 1.38; G 1.78; V 3.72; H 2.1; Q 2.29; D 2.21
F7: E 1.96; T 3.02; S 2.83; H 2.72; G 1.42; I 1.98
S20: R 2.14; Y 2.75; V 1.24; P 1.31; I 2.8; Q 1.94; K 1.58; F 1.66; T 3.72; L 2.8; M 1.14
S1: C 2.04; G 1.9; N 1.74; I 1.61; M 1.36; K 1.4
R23: K 2.14; P 2.18; S 2.1; Y 1.12; Q 2.51; W 1.83; F 2.16; D 2.1; N 1.94
K2: C 2.23; E 2.05; P 1.96; T 2.34; F 1.57; D 2.19; I 1.45; Q 2.65; R 1.64; G 2.31; M 1.7; H 1.8; V 1.77
L19: F 2.68; I 2.52; T 2.31; K 1.81; M 1.95; R 2.18; W 1.41
Y3: P 1.66; C 1.79; Q 1.61; V 3.67; L 1.97; R 2.13; M 1.59; K 3.46; D 2.29
E4: S 1.27; R 2.54; T 2.98; D 2.45; C 2.24; P 2.06; G 2.13; Q 1.56; I 1.26; N 1.71; Y 2.33; V 2.1; L 2.23
G24: H 2.11; K 2.74; V 2.01; D 2.12; Y 1.45; A 1.81; T 2.07; E 2.46; N 1.66
S10: N 2.13; Y 1.67; M 1.86; C 2.34; T 2.77; F 1.07; A 2.07; R 2.3; H 2.38; P 1.95
E11: Y 1.75; G 1.55; V 2.37; Q 2.49; N 2; A 1.57; T 1.67; L 2.11; H 2.76; D 2.39; I 1.71
L13: K 1.9; V 2.72; E 2.3; D 3.44; P 2.35
S8: C 2.03; H 2.01; L 1.55; K 1.62; V 1.56; D 3.25; R 1.44; Q 2.26; F 2.35
E18: R 2.5; S 1.38; C 1.43; K 1.99; I 1.75; D 1.82; G 1.87

Variants of: B2
Assay: as above
Details: c terminus: a fixed tail appended

Protein stability index of substitutions, site by site:
Q1: C 2.37; D 2.21; E 2.74; F 1.91; G 2.31; H 2.28; I 2.03; K 2.34; L 1.49; M 1.99; N 2.49; P 2.39; R 2.48; S 2.4; T 2.23; V 2.39; W 2.76; Y 2.02
E2: A 1.63; C 1.52; D 2.74; F 2.44; G 2.93; H 2.58; I 1.92; K 1.81; L 2.73; M 1.92; N 1.9; P 2.93; Q 2.25; R 2.93; S 1.87; T 2; V 1.74; W 2; Y 2.75
K3: A 2.67; C 3.24; D 3.27; E 3.04; F 2.43; G 3.03; H 2.32; I 2.01; L 2.15; N 3.11; P 2.67; Q 2.85; R 2.84; S 3.6; T 3.04; V 2.32; W 1.57; Y 2.88
K4: A 1.87; C 1.9; D 3.48; E 2.73; F 2.18; G 3.03; H 3.22; I 1.96; L 2; M 1.68; N 3.32; P 3.07; Q 3.4; R 2.77; S 2.83; T 2.49; V 2.02; W 1.85; Y 2.53
L5: A 4.08; C 2.69; D 3.93; E 3.51; F 2.91; G 3.91; H 2.9; I 2.76; K 3.11; M 2.38; N 4.19; P 3.58; Q 3.34; R 3.05; S 3.95; T 2.69; V 2.57; W 2.12; Y 2.08
S6: A 2.16; C 2.74; D 3.02; E 2.86; F 2.32; G 2.8; H 2.39; I 1.74; K 2.62
